The target in data set [1] is T1, TFAM (mature) (human, UniProt Q00059 43-246).
T1 sequence: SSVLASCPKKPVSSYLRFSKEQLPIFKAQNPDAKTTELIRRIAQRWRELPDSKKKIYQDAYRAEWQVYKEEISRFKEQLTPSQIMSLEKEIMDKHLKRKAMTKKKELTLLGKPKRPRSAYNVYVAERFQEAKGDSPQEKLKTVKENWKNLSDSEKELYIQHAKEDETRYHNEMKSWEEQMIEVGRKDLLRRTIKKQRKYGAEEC
Kind of data set: EMSA; EMSA: 25 mM Tris-HCl pH 7.0, 90 mM NaCl, 1 mM DTT, 3% glycerol, 0.01% Tween20, 30 min, room temperature; G4s mostly prefolded in 10 mM cacodylate pH 6.5, 100 mM KCl. To be noted: protein: recombinant, tags: C-terminal 6xHis. For orientation: In EMSA bound probe runs differently from free probe, usually more slowly.

Data set [2] concerns the target T1, TFAM (mature). Description: intrinsic fluorescence quenching; EMSA: 25 mM Tris-HCl pH 7.0, 90 mM NaCl, 1 mM DTT, 3% glycerol, 0.01% Tween20, 30 min, room temperature; G4s mostly prefolded in 10 mM cacodylate pH 6.5, 100 mM KCl. The settings on record: protein: recombinant, tags: C-terminal 6xHis.
In data set [3] the target is T1, TFAM (mature). Kind of data set: EMSA; similar to unmodified c-myc; EMSA: 25 mM Tris-HCl pH 7.0, 90 mM NaCl, 1 mM DTT, 3% glycerol, 0.01% Tween20, 30 min, room temperature; G4s mostly prefolded in 10 mM cacodylate pH 6.5, 100 mM KCl. The settings on record: protein: recombinant; tags: C-terminal 6xHis; intramolecular G4.
In data set [4] the target is T1, TFAM (mature). Description: EMSA; single shift; EMSA: 25 mM Tris-HCl pH 7.0, 90 mM NaCl, 1 mM DTT, 3% glycerol, 0.01% Tween20, 30 min, room temperature; G4s mostly prefolded in 10 mM cacodylate pH 6.5, 100 mM KCl. The settings on record: protein: recombinant; tags: C-terminal 6xHis; G4 tetramer of 4 strands.
Data set [5] concerns the target T1, TFAM (mature). Description: competition; vs 32P CSBII G4-DNA/RNA; EMSA: 25 mM Tris-HCl pH 7.0, 90 mM NaCl, 1 mM DTT, 3% glycerol, 0.01% Tween20, 30 min, room temperature; G4s mostly prefolded in 10 mM cacodylate pH 6.5, 100 mM KCl. To be noted: protein: recombinant; tags: C-terminal 6xHis; duplex.
Data set [6] has as its target T1, TFAM (mature). Kind of data set: EMSA; microscopic k1, two-site fit; EMSA: 25 mM Tris-HCl pH 7.0, 90 mM NaCl, 1 mM DTT, 3% glycerol, 0.01% Tween20, 30 min, room temperature; G4s mostly prefolded in 10 mM cacodylate pH 6.5, 100 mM KCl. The settings on record: protein: recombinant; tags: C-terminal 6xHis; label: 5' 32P or SybrGold; G4 parallel tetramer of 4 strands.

Data set [7] concerns the target T1, TFAM (mature). Kind of data set: competition; homo-competition, 32P-G4-LSP22H; EMSA: 25 mM Tris-HCl pH 7.0, 90 mM NaCl, 1 mM DTT, 3% glycerol, 0.01% Tween20, 30 min, room temperature; G4s mostly prefolded in 10 mM cacodylate pH 6.5, 100 mM KCl. The settings on record: protein: recombinant; tags: C-terminal 6xHis; label: 5' 32P or SybrGold; G4 parallel tetramer of 4 strands.

Another data set addresses T2, TFAM (mature);TFAM HMG1 (human;human, UniProt Q00059;Q00059 43-246;43-125, |).
T2 sequence 1: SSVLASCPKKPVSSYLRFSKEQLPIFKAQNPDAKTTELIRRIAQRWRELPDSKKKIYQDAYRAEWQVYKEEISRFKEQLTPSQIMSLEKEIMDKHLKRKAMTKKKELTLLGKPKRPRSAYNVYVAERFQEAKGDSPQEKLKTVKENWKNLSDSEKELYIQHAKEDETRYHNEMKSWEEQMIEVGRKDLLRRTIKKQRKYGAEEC
T2 sequence 2: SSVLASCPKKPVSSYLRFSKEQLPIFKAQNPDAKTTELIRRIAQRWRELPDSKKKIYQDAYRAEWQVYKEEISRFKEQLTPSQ
Kind of data set: EMSA; one TFAM and one HMG1 per G4; EMSA: 25 mM Tris-HCl pH 7.0, 90 mM NaCl, 1 mM DTT, 3% glycerol, 0.01% Tween20, 30 min, room temperature; G4s mostly prefolded in 10 mM cacodylate pH 6.5, 100 mM KCl. The settings on record: protein: recombinant;recombinant; tags: C-terminal 6xHis;; label: 5' 32P or SybrGold; G4 parallel tetramer of 4 strands.

Data set [8] deals with T1, TFAM (mature). Kind of data set: EMSA; microscopic k2, two-site fit; k12 0.58; EMSA: 25 mM Tris-HCl pH 7.0, 90 mM NaCl, 1 mM DTT, 3% glycerol, 0.01% Tween20, 30 min, room temperature; G4s mostly prefolded in 10 mM cacodylate pH 6.5, 100 mM KCl. To be noted: protein: recombinant; tags: C-terminal 6xHis; label: 5' 32P or SybrGold; G4 parallel tetramer of 4 strands.
Data set [9] addresses T3, TFAM (mature);TFAM HMG1-L (human;human, UniProt Q00059;Q00059 43-246;43-152, |).
T3 sequence 1: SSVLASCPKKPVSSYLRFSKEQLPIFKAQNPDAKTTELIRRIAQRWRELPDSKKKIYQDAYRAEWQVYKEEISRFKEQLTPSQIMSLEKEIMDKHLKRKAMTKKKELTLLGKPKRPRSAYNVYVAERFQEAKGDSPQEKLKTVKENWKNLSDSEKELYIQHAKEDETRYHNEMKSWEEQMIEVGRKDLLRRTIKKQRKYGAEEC
T3 sequence 2: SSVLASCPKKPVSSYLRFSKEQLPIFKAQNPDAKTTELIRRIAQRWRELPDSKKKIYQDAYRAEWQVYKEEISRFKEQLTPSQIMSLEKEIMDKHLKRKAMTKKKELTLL
Kind of data set: EMSA; one TFAM and one or two HMG1-L per G4; EMSA: 25 mM Tris-HCl pH 7.0, 90 mM NaCl, 1 mM DTT, 3% glycerol, 0.01% Tween20, 30 min, room temperature; G4s mostly prefolded in 10 mM cacodylate pH 6.5, 100 mM KCl. The settings on record: protein: recombinant;recombinant; tags: C-terminal 6xHis;N-terminal His; label: 5' 32P or SybrGold; G4 parallel tetramer of 4 strands.

In data set [10] the target is T1, TFAM (mature). Description: competition; vs 32P-dsLSP22; EMSA: 25 mM Tris-HCl pH 7.0, 90 mM NaCl, 1 mM DTT, 3% glycerol, 0.01% Tween20, 30 min, room temperature; G4s mostly prefolded in 10 mM cacodylate pH 6.5, 100 mM KCl. To be noted: protein: recombinant; tags: C-terminal 6xHis; label: 5' 32P or SybrGold; G4 parallel tetramer of 4 strands.
Setting [11] is: label: 5' 32P, G4 tetramer of 4 strands.
Where [12] appears, read: label: 5' 32P or SybrGold, G4 parallel tetramer of 4 strands.

Take ACAGGGGTGTGGGGACAGGGGTGTGGGG (structured_DNA) [ILPR G4]: the Kd (in general, the equilibrium constant for the complex coming apart) in the data set with TFAM (mature) [1] (label: 5' 32P, intramolecular G4, mostly antiparallel by CD) came out at 118 nM.

B1: dsLSP22 (dsDNA)
DNA 1: GTTAGTTGGGGGGTGACTGTTA
DNA 2: TAACAGTCACCCCCCAACTAAC
Consider B1, for which the Kd with TFAM (mature) [1] (label: 5' 32P (EMSA), blunt) worked out at 9.2 nM. For the same molecule, in the data set with TFAM (mature) [2] (label: 5' 32P (EMSA), blunt), the binding signal was around 50 % Trp quenching.

B2: CSBII G4-DNA/RNA (mixed)
DNA: GAAGCGGGGGAGGGGGGGTTTGGTGGAAAT
RNA: GAAGCGGGGGAGGGGGGGUUUGGUGGAAAU
Consider B2, for which, in the data set with TFAM (mature) [1] (label: 5' 32P, hybrid G4 bimolecular), the Kd amounted to 1.85 nM.

Consider TGAGGGTGGGTAGGGTGGGTAA (structured_DNA) [c-myc G4], for which, in the data set with TFAM (mature) [1] (label: 5' 32P, intramolecular G4, parallel by CD), the Kd amounted to 53 nM.

Consider GAAGCGGGGGAGGGGGGGTTTGGTGGAAAT (structured_DNA) [CSBII G4-DNA (EMSA)], for which the equilibrium dissociation constant (Kd) with TFAM (mature) [1] (label: 5' 32P, G4, purified bimolecular) stood at 3.65 nM.

Consider GAAGCGGGGGAGGGGGGGUUUGGUGGAAAU (structured_RNA) [CSBII G4-RNA], for which the dissociation constant Kd with TFAM (mature) [1] (label: 5' 32P, G4 bimolecular) worked out at 1.25 nM.

TCTGAGGGTGGGTAGGGTGGGTAACT (structured_DNA) [c-myc G4 extended]: the binding result with TFAM (mature) [3] is reported as “binds”.

For the molecule TCACAGGGGTGTGGGGACAGGGGTGTGGGGTGACT (structured_DNA) [ILPR G4 extended], the Kd with TFAM (mature) [1] (intramolecular G4) is around 26 nM.

With AATAATGTGTTAGTTGGGGGGTG (structured_DNA) [G4-LSPas], the Kd with TFAM (mature) [1] (setting [11]) came out at 0.89 nM. The binding signal with TFAM (mature) [2] (setting [11]) is around 70 % Trp quenching.

Consider TAGTTGGGGGGT (structured_DNA) [(TAGTTG6T)4], for which the binding result with TFAM (mature) [4] is reported as “binds”.

TGGGGGGT (structured_DNA) [(TG6T)4]: the binding result with TFAM (mature) [1] (G4 tetramer of 4 strands) is “no binding”.

For the molecule TGGGGGGTGACT (structured_DNA) [(TG6TGACT)4], in the data set with TFAM (mature) [4], the Kd worked out at 5 nM.

B3: CSBII DNA/RNA heteroduplex competitor (DNA:RNA)
RNA: GAAGCGGGGGAGGGGGGGUUUGGUGGAAAU
DNA: ATTTCCACCAAACCCCCCCTCCCCCGCTTC
For B3, in the data set with TFAM (mature) [5], the binding signal was ~80 % free probe at 500-fold excess.

Consider GTTAGTTGGGGGGTGACTGTTA (structured_DNA) [G4-LSP22H], for which the Ka with TFAM (mature) [6] was 0.61 ± 0.12 10^9 M^-1; with TFAM (mature) [8] it was 0.69 ± 0.25 10^9 M^-1. The binding signal with TFAM (mature) [7] is 10 fold excess for 50% free probe; with TFAM (mature) [2] (setting [12]) it was around 70 % Trp quenching; with TFAM (mature) [10] it was 1.6 fold excess for 50% displacement. Moreover, the dissociation constant Kd in the data set with TFAM (mature) [1] (setting [12]) turned out to be 0.65 nM. Also, the binding result (with TFAM (mature);TFAM HMG1; in data set [9]) was “binds” each time.

The values above are taken from publication PMC5343656, “The human mitochondrial transcription factor A is a versatile G-quadruplex binding protein”.
